Assay results: paper PMC5784979, “Direct comparison of the four aldehyde oxidase enzymes present in mouse gives insight into their substrate specificities” (PLoS ONE, 2018)

Key:
Experiment in all cases: purified protein
Details in all cases: 100 μM DCPIP as electron acceptor, 50 mM Tris-HCl, 1 mM EDTA, pH 8.0, 37°C, corrected to 100% Mo saturation
[1] = substrate: c1ccc2c(c1)cnc1ccccc12
[2] = substrate: c1ncc2[nH]cnc2n1; assay type: biochemical, Mus musculus
[3] = substrate: COc1ccccc1C=O; assay type: biochemical, Mus musculus
[4] = substrate: CC=O; assay type: biochemical, Mus musculus
[5] = substrate: O=Cc1ccccc1; assay type: biochemical, Mus musculus
[6] = substrate: O=Cc1ccccc1O; assay type: biochemical, Mus musculus
[7] = substrate: CCCCC=O; assay type: biochemical, Mus musculus
[8] = substrate: c1ccc2cnncc2c1; assay type: biochemical, Mus musculus

B1: mAOX1 (Mus musculus) (protein)
chain: MDPIQLLFYVNGQKVVEKNVDPEMMLLPYLRKNLRLTGTKYGCGGGGCGACTVMISRYNPSTKAIRHHPVNACLTPICSLHGTAVTTVEGLGNTRTRLHPIQERIAKCHGTQCGFCTPGMVMSMYALLRNHPEPTLDQLTDALGGNLCRCTGYRPIIDACKTFCKASACCQSKENGVCCLDQEINGLAESQEEDKTSPELFSEEEFLPLDPTQELIFPPELMRIAEKQPPKTRVFYGERVTWISPVTLKELVEAKFKYPQAPIVMGYTSVGPEVKFKGVFHPIIISPDRIEELGVISQARDGLTLGAGLSLDQVKDILADIVQKLPEEKTQTYRALLKHLRTLAGSQIRNMASLGGHIVSRHLDSDLNPLLAVGNCTLNLLSKDGERRIPLSEEFLRKCPEADLKPQEVLVSVNIPWSRKWEFVSAFRQAQRQQNALAIVNSGMRVLFREGGGVIEELSILYGGVGSTIISAKNSCQRLIGRPWNEGMLDTRCRLVLDEVTLAASAPGGKVEFKRTLIISFLFKFYLEVSQGLKREDPGHSPSLAGNHESALDDLHSKHPWRTLTHQNVDPAQLPQDPIGRPIMHLSGIKHATGEAIYCDDMPAVDRELFLTFVTSSRAHAKIVSIDLSEALSLPGVVDIITADHLQEANTFGTETFLATDEVHCVGHLVCAVIADSETRAKQAAKQVKVVYQDLAPLILTIEEAIQHKSFFKSERKLECGNVDEAFKIVDQILEGEIHIGGQEHFYMETQSMLVVPKGEDGEIDIYVSTQFPKYIQDIVAATLKLSANKVMCHVRRVGGAFGGKVGKTSILAAITAFAASKHGRAVRCILERGEDMLITGGRHPYLGKYKAGFMNEGRILALDVEHYCNGGCSLDESLWVIEMGLLKLDNAYKFPNLRCRGWACRTNLPSNTALRGFGFPQAGLVTEACITEVAIKCGLSPEQVRTINMYKHVDTTHYKQEFSAKALSECWRECMAKCSYFERKAAIGKFNAENSWKKRGMAVIPLKFPVGIGSVAMGQAAALVHIYLDGSALVSHGGIEMGQGVHTKMIQVVSRELRMPMSSVHLRGTSTETVPNTNASGGSVVADLNGLAVKDACQTLLKRLEPIISKNPQGTWKDWAQTAFDQSISLSAVGYFRGYESNIDWEKGEGHPFEYFVFGAACSEVEINCLTGDHKNIRTNIVMDVGHSINPALDIGQVEGAFIQGMGLYTIEELSYSPQGTLYSRGPNQYKIPAICDIPTEMHISFLPPSEHSNTLYSSKGLGESGVFLGCSVFFAIHDAVKAARQERGISGPWKLNSPLTPEKIRMACEDKFTKMIPRDEPGSYVPCNIPV
notes: recombinant from E. coli TP1000 (codon-optimized plasmid pMAOX1co), Ni-NTA and Superdex 200 purified, chemically sulfurated, dimer (300 kDa)
In the case of B1, the Km [1] is reported as 2.5 ± 1.1 µM, the kcat [1] is reported as 2.013 ± 0.277 s⁻¹ and the Km [2] is reported as 9028 ± 971 µM. For the same protein, the kcat [2] was 7.147 ± 0.29 s⁻¹, the Km [3] was 6.6 ± 1.5 µM and the kcat [3] was 6.885 ± 0.362 s⁻¹. It also gave a Km [4] of 18000 µM.

B2: mAOX2 (Mus musculus) (protein)
chain: MPCPAQISDDLEFFVNGRKVTEKNVDPEVTLLAFLRKNLCLTGTKDACGTGGCGACTVMVSQHDPVCKKTRHFSVMACLVPLCSLHGAAVTTVEGVGSIKTRLHPVQERIAKSHGTQCGFCTPGMVMSIYTLLRNHPQPSEEQLMEALGGNLCRCTGYRPILESGRTFCMEPDGCPQKGTGQCCLDQKESDSSGSKSDICTKLFVKDEFQPLDPTQELIFPPELLRMAENPEKQTLTFYGERITWIAPGTLQELLVLKAKYPEAPLISGNTALGPAMKSQGHFYPVLLSPARIPDLRMVTKTSGGLTIGACCSLAQVKDILAESISELPQEKTQTYRALLKHLRSLAGQQIRNMASLGGHVISRHCYSDLNPILSVGNTTLNLLSEEGPRQIPLSGHFLAGLASADLKPEEILGSVYIPHSQKREFVSAFRQAQCHQNALPDVNAGMRVLFREGTDVIEELSIAYGGVGPTTVSAQRSCQQLLGRRWNALMLDEACRLLLDEVSLPGSALGGKVEFRRTLIVSLFFKFYLEVLQELKADQKLPPESTDSQRYPEIADRFLSSLGDFQVTLPRGVQTYQRVDSHQPLQDPVGRPIMHLSGLKHATGEAVFCDDIPRVDKELFMALVTSTRAHARIISIDSSEVLDLPGVVDVITAEDIPGNNGEEDDKLLAVDKVLCVGQVICAVVAETDVQAKRATEKIKITYEDLKPVIFTIEDAIKHNSFLCPEKKLEQGNIEEAFENVDQVAEGTVHVGGQEHFYMETQRVLVIPKTEDKELDMYVSTQDPAHVQKTVSSTLNIPISRITCHVKRVGGGFGGKVGRPAVFGAIAAVGAVKTGHPIRLVLDREDDMLITGGRHPLFAKYKVGFMNSGRIKALDIECYINGGCTLDDSELVTEFLVLKLENAYKIRNLRLRGRACMTNLPSNTAFRGFGFPQGALVTESCITAVAAKCGLPPEKIREKNMYKTVDKTIYKQAFNPDPLIRCWNECLDKSSFHIRRTRVDEFNKKSYWKKRGIAIVPMKFSVGFAATSYHQAAALVHIYTDGSVLVAHGGNELGQGIHTKMLQVASRELKIPLSYLHICETSTTTVPNTIATAASVGADVNGRAVQNACQILLKRLEPVIKKNPEGTWRDWIEAAFEKRISLSATGYFRGYKAFMDWEKGEGDPFPYYVYGAACSEVEIDCLTGAHKKIRTDIVMDACCSLNPAIDIGQIEGAFIQGMGLYTTEELLYSPEGVLYSRSPDKYKIPTVTDVPEQFNVSLLPSSQTPLTLYSSKGLGESGMFLGSSVFFAIVDAVAAARRQRDIAEDFTVKSPATPEWVRMACADRFTDMIPRDDPKTFKPWSIPIA
notes: recombinant from E. coli TP1000 (codon-optimized plasmid pMAOX2co), Ni-NTA and Superdex 200 purified, chemically sulfurated, dimer (300 kDa)
B2 showed a Km [1] of 1.9 ± 0.3 µM, a kcat [1] of 1.962 ± 0.0817 s⁻¹ and a Km [2] of 298.4 µM.

B3: mAOX4 (Mus musculus) (protein)
chain: MPSVSESDELIFFVNGKKVIEKNPDPEKNLLFYTRKVLNLTGTKYSCGTGGCGACTVMVSRYNPKTRKIHHYPATACLVPICWLHGAAITTVEGVGSIKKRVHPVQERLAKCHGTQCGFCSPGMVMSIYTLLRNHPEPTPDQITEALGGNLCRCTGYRPIVESGKTFSQKSTVCQMKGSGKCCMDPDEKCLESREKKMCTKLYNEDEFQPFDPSQEPIFPPELIRMAEDPNKRRLTFQGKRTTWIIPVTLNDLLELKASYPEAPLVMGNTTVGPGIKFNDEFYPVFISPLGVPELNLMDTTNNGVTIGAGYSLAQLKDTLDFLVSEQPKEKTKTFHALQKHLRTLAGPQIRNMATLGGHTASRPNFSDLNPILAAGNATINVVSREGKDRQLPLNGPFLEKLPEADLKPEEVILSIFIPYTAQWQFVSGLRLAQRQENAFAIVNAGMSVEFEEGTNTIKDLKMFFGSVAPTVVSASQTCKQLIGRQWDDQMLSDACQLVLQEIRIPPDAEGGMVEYRRTLIISLLFKFYLKVQRWLNEMDPQKFPDIPGKFVSALDDFPIETPQGIQMFQCVDPKQPQKDPVGHPIMHQSGIKHATGEAIFIDDMPPIDQELCLAVVTSTRAHAKITSLDVSEALACPGVVDVITAEDVPGENDHNGEILYAQSEVICVGQIICTVAADTYIHAKEAAKRVKIAYDDIEPTIITIEEALEHNSFLSPEKKIEQGNVDYAFKHVDQIVEGEIHVEGQEHFYMETQTILAIPQTEDKEMVLHLGTQFPTHVQEFVSAALNVPRSRIACHMKRAGGAFGGKVTKPALLGAVCAVAANKTGRPIRFILERSDDMLITAGRHPLLGKYKIGFMNNGEIRAADVEYYTNGGCTPDESELVIEFVVLKSENTYHIPNFRCRGRACKTNLPSNTAFRGFGFPQATVVVEAYIAAVASKCNLLPEEVREINMYKKTSKTAYKQTFNPEPLRRCWKECLEKSSFFARKKAAEEFNGNNYWKKRGLAVVPMKFSVAVPIAFYNQAAALVHIFLDGSVLLTHGGCELGQGLHTKMIQVASRELNVPKSYVHFSETSTTTVPNSAFTAGSMGADINGKAVQNACQILMDRLRPIIRKNPKGKWEEWIKMAFEESISLSATGYFKGYQTNMDWKKEEGDPYPYYVYGAACSEVEVDCLTGAHKLLRTDIFVDAAFSINPALDIGQVEGAFIQGMGFYTTEELKYSPKGVLYSRGPEDYKIPTITEIPEEFYVTLVHSRNPIAIYSSKGLGEAGMFLGSSVLFAIYDAVTTARKERGLSDIFPLNSPATPEVIRMACTDQFTEMIPRDDPSTFTPWSIHVS
notes: recombinant from E. coli TP1000 (plasmid pMAOX4), Ni-NTA and Superdex 200 purified, chemically sulfurated, dimer (300 kDa)
B3 gave a Km [5] of 2.2 ± 0.2 µM, a kcat [5] of 1.52 ± 0.0383 s⁻¹ and a kcat/Km [5] of 693000 M⁻¹ s⁻¹. It also gave a Km [6] of 13.2 ± 2.4 µM, a kcat [6] of 3.42 ± 0.112 s⁻¹ and a kcat/Km [6] of 260000 M⁻¹ s⁻¹. For the same protein, the Km [2] was 12344 µM, the Km [7] was 48.3 ± 8.7 µM and the kcat [7] was 2.8 ± 0.22 s⁻¹. The kcat/Km [7] was 58300 M⁻¹ s⁻¹, the Km [8] was 8.3 ± 0.9 µM and the kcat [8] was 5.51 ± 0.142 s⁻¹. It also gave a kcat/Km [8] of 665000 M⁻¹ s⁻¹.

B4: mAOX3 (Mus musculus) (protein)
chain: MSPSKESDELIFFVNGKKVTERNADPEVNLLFYLRKVIRLTGTKYGCGGGDCGACTVMISRYDPISKRISHFSATACLVPICSLHGAAVTTVEGIGSTKTRIHPVQERIAKGHGTQCGFCTPGMVMSIYTLLRNHPEPSTEQIMETLGGNLCRCTGYRPIVESAKSFCPSSTCCQMNGEGKCCLDEEKNEPERKNSVCTKLYEKKEFQPLDPTQELIFPPELMRMAEESQNTVLTFRGERTTWIAPGTLNDLLELKMKHPSAPLVIGNTYLGLHMKFTDVSYPIIISPARILELFVVTNTKQGLTLGAGLSLTQVKNVLSDVVSRLPKEKTQIYCALLKQLKTLAGQQIRNVASLGGHIISRLPTSDLNPILGIGNCILNVASTEGIQQIPLNDHFLAGVPDAILKPEQVLISVFVPRSSKWEFVSAFRQAPRQQNAFATVNAGMKVVFKEDTNTITDLGILYGGIGATVISADKSCRQLIGRCWDEEMLDDAGKMICEEVSLLMAAPGGMEEYRKTLAISFLFMFYLDVLKQLKTRDPHKYPDISQKLLHILEDFPLTMPYGMQSFQDVDFQQPLQDPIGRPIMHQSGIKHATGEAVFCDDMSVLPGELFLAVVTSSKSHAKIISLDASEALASLGVVDVVTARDVPGDNGREEESLYAQDEVICVGQIVCAVAADSYAHAQQAAKKVKIVYQDIEPMIVTVQDALQYESFIGPERKLEQGNVEEAFQCADQILEGEVHLGGQEHFYMETQSVRVVPKGEDKEMDIYVSSQDAAFTQEMVARTLGIPKNRINCHVKRVGGAFGGKASKPGLLASVAAVAAQKTGRPIRFILERRDDMLITGGRHPLLGKYKIGFMNNGKIKAADIQLYINGGCTPDDSELVIEYALLKLENAYKIPNLRVRGRVCKTNLPSNTAFRGFGFPQGAFVTETCMSAVAAKCRLPPEKVRELNMYRTIDRTIHNQEFDPTNLLQCWEACVENSSYYNRKKAVDEFNQQRFWKKRGIAIIPMKFSVGFPKTFYYQAAALVQIYTDGSVLVAHGGVELGQGINTKMIQVASRELKIPMSYIHLDEMSTVTVPNTVTTGASTGADVNGRAVQNACQILMKRLEPIIKQNPSGTWEEWVKEAFVQSISLSATGYFRGYQADMDWEKGEGDIFPYFVFGAACSEVEIDCLTGAHKNIRTDIVMDGSFSINPAVDIGQIEGAFVQGLGLYTLEELKYSPEGVLYTRGPHQYKIASVTDIPEEFHVSLLTPTPNPKAIYSSKGLGEAGTFLGCSVFFAIAAAVAAAREERGLSPIWAINSPATAEVIRMACEDQFTNLVPQTDSKCCKPWSIPVA
notes: recombinant from E. coli TP1000 (plasmid pMMA1), Ni-NTA and Superdex 200 purified, chemically sulfurated, dimer (300 kDa)
B4 was tested, and the Km [1] was 10.8 ± 1.8 µM, the kcat [1] was 2.353 ± 0.0917 s⁻¹ and the Km [5] was 0.8 ± 0.1 µM. It also gave a kcat [5] of 2.512 ± 0.06 s⁻¹, a Km [2] of 3181 ± 334 µM and a kcat [2] of 7.862 ± 0.298 s⁻¹.
